Reference: US20240115744A1, “FIBRIN-BINDING COMPOUNDS FOR IMAGING AND TREATMENT” (Collagen Medical, LLC, priority 2019, published 2024)
*1 amine or outer side, *2 acyl side, *3 side chain or, on linkers, in order; H or OH if unused. Where a SMILES comes first, the peptide text is derived from it. Bridges are numbered along the chain shown (N, C = ends). [ ]: non-standard residue; d: D form. The star is where a group is joined. NODAGA = O=C(O)CN1CCN(CC(=O)O)CCN(C(CCC(=O)*)C(=O)O)CC1; Tyr(3-Cl) = N[C@@H](Cc1ccc(O)c(Cl)c1)C(=O)O; Nicotinoyl(6-F) = O=C(c1ccc(F)nc1)*; X1 = O=C([C@@H]1CC(O)CN1[*:1])[*:2]; Hyp = O=C(O)[C@@H]1C[C@@H](O)CN1

Key:
[1] = Blood analysis in rat model of carotid artery crush injury (blood clearance); assay type: in vivo; conditions: relative to the other compounds compared
Procedure: Rat carotid endothelial injury model in vivo studies were conducted, wherein the common carotid artery is isolated and crushed briefly with a hemostat, resulting in mural thrombus formation at the site of the crush. The vessel wall fibrin is then imaged with our PET compounds. All six compounds were evaluated in this model.
Adult male Wistar rats were anesthetized by isoflurane (1-2% in medical air). Body temperature was maintained at 37° C. using a thermo-regulated heating pad. The right femoral vein and artery were cannulated for compound injection and blood sampling, respectively. Endothelial injury was induced by crush injury to the right common carotid artery (1-2 cm proximal to the carotid bifurcation) by clamping the vessel with a hemostat for 5 minutes. Immediately following the surgical procedures, rats were placed in a micro-PET/CT scanner. Compound (200-600 μL) was injected, PET-CT images were acquired, and blood samples were drawn from the femoral artery prior to compound injection and at 2, 5, 10, 15, 30, 60, 90, 120 min post injection. Tissues were harvested at the end for ex vivo analyses.
Blood samples were drawn from prior to probe injection and at 2, 5, 10, 15, 30, 60, 90, 120 min post injection. Each blood sample was weighed and counted using a gamma-counter. The activity in each sample was calculated as percent injected dose (% ID) per gram of tissue.

[2] = target: soluble fibrin fragment DD(E); assay: fluorescence polarization, displacement of the TRITC peptide from DD(E)
[3] = target: soluble fibrin fragment DD(E); assay: fluorescence polarization DD(E) assay

Row | Ki [2] | Kd [3] | Molecule | blood clearance ([1]; rat carotid artery crush injury, 2-120 min post injection) | metabolic stability ([1]; rat)
1 |  |  | CC[C@H](C)[C@H](NC(=O)[C@H](Cc1cnc[nH]1)NC(=O)[C@@H]1CSSC[C@H](NC(=O)[C@@H](CCC(=O)O)NC(=O)[C@@H](Cc2ccc(O)cc2)NC(=O)CCC(C(=O)O)N2CCN(CC(=O)O)CCN(CC(=O)O)CC2)C(=O)N2CC(O)C[C@H]2C(=O)N[C@@H](Cc2ccc(O)c(Cl)c2)C(=O)NCC(=O)N[C@@H](CC(C)C)C(=O)N1)C(=O)N[C@@H](CCC(N)=O)C(N)=O (stereo partly shown) [Compound ^68Ga-19, metal not drawn] ({NODAGA}-[dY][dE]C[X1][Tyr(3-Cl)]GLCHIQ-NH2; disulfide 3-8) | faster blood clearance | better metabolic stability
2 | 1200 nM |  | {Nicotinoyl(6-F)}-Y[dE]C[Hyp][Tyr(3-Cl)]DLCYIQ-NH2 (disulfide 3-8; SMILES CC[C@H](C)[C@H](NC(=O)[C@H](Cc1ccc(O)cc1)NC(=O)[C@@H]1CSSC[C@H](NC(=O)[C@@H](CCC(=O)O)NC(=O)[C@H](Cc2ccc(O)cc2)NC(=O)c2ccc(F)nc2)C(=O)N2C[C@H](O)C[C@H]2C(=O)N[C@@H](Cc2ccc(O)c(Cl)c2)C(=O)N[C@@H](CC(=O)O)C(=O)N[C@@H](CC(C)C)C(=O)N1)C(=O)N[C@@H](CCC(N)=O)C(N)=O) [Compound 12] |  | 
3 | 180 nM | < 600 nM | {Nicotinoyl(6-F)}-Y[dE]C[Hyp][Tyr(3-Cl)]GLCHIQ-NH2 (disulfide 3-8; SMILES CC[C@H](C)[C@H](NC(=O)[C@H](Cc1c[nH]cn1)NC(=O)[C@@H]1CSSC[C@H](NC(=O)[C@@H](CCC(=O)O)NC(=O)[C@H](Cc2ccc(O)cc2)NC(=O)c2ccc(F)nc2)C(=O)N2C[C@H](O)C[C@H]2C(=O)N[C@@H](Cc2ccc(O)c(Cl)c2)C(=O)NCC(=O)N[C@@H](CC(C)C)C(=O)N1)C(=O)N[C@@H](CCC(N)=O)C(N)=O) [Compound 4] |  | 
4 | 340 nM | < 600 nM | {Nicotinoyl(6-F)}-[dY][dE]C[Hyp][Tyr(3-Cl)]GLCYIQ-NH2 (disulfide 3-8; SMILES CC[C@H](C)[C@H](NC(=O)[C@H](Cc1ccc(O)cc1)NC(=O)[C@@H]1CSSC[C@H](NC(=O)[C@@H](CCC(=O)O)NC(=O)[C@@H](Cc2ccc(O)cc2)NC(=O)c2ccc(F)nc2)C(=O)N2C[C@H](O)C[C@H]2C(=O)N[C@@H](Cc2ccc(O)c(Cl)c2)C(=O)NCC(=O)N[C@@H](CC(C)C)C(=O)N1)C(=O)N[C@@H](CCC(N)=O)C(N)=O) [Compound 6] |  | 
5 | 730 nM |  | {Nicotinoyl(6-F)}-[dY][dE]C[Hyp][Tyr(3-Cl)]GLCYI[dL]-NH2 (disulfide 3-8; SMILES CC[C@H](C)[C@H](NC(=O)[C@H](Cc1ccc(O)cc1)NC(=O)[C@@H]1CSSC[C@H](NC(=O)[C@@H](CCC(=O)O)NC(=O)[C@@H](Cc2ccc(O)cc2)NC(=O)c2ccc(F)nc2)C(=O)N2C[C@H](O)C[C@H]2C(=O)N[C@@H](Cc2ccc(O)c(Cl)c2)C(=O)NCC(=O)N[C@@H](CC(C)C)C(=O)N1)C(=O)N[C@H](CC(C)C)C(N)=O) [Compound 9] |  | 
6 | 2760 nM |  | {Nicotinoyl(6-F)}-Y[dE]C[Hyp][Tyr(3-Cl)][dD]LCYIQ-NH2 (disulfide 3-8; SMILES CC[C@H](C)[C@H](NC(=O)[C@H](Cc1ccc(O)cc1)NC(=O)[C@@H]1CSSC[C@H](NC(=O)[C@@H](CCC(=O)O)NC(=O)[C@H](Cc2ccc(O)cc2)NC(=O)c2ccc(F)nc2)C(=O)N2C[C@H](O)C[C@H]2C(=O)N[C@@H](Cc2ccc(O)c(Cl)c2)C(=O)N[C@H](CC(=O)O)C(=O)N[C@@H](CC(C)C)C(=O)N1)C(=O)N[C@@H](CCC(N)=O)C(N)=O) [Compound 14] |  | 
7 | 1250 nM |  | {Nicotinoyl(6-F)}-Y[dE]C[Hyp][Tyr(3-Cl)]GLCYI[dQ]-NH2 (disulfide 3-8; SMILES CC[C@H](C)[C@H](NC(=O)[C@H](Cc1ccc(O)cc1)NC(=O)[C@@H]1CSSC[C@H](NC(=O)[C@@H](CCC(=O)O)NC(=O)[C@H](Cc2ccc(O)cc2)NC(=O)c2ccc(F)nc2)C(=O)N2C[C@H](O)C[C@H]2C(=O)N[C@@H](Cc2ccc(O)c(Cl)c2)C(=O)NCC(=O)N[C@@H](CC(C)C)C(=O)N1)C(=O)N[C@H](CCC(N)=O)C(N)=O) [Compound 13] |  | 
8 | 640 nM |  | {Nicotinoyl(6-F)}-Y[dE]C[Hyp][Tyr(3-Cl)]GLCHI[dL]-NH2 (disulfide 3-8; SMILES CC[C@H](C)[C@H](NC(=O)[C@H](Cc1c[nH]cn1)NC(=O)[C@@H]1CSSC[C@H](NC(=O)[C@@H](CCC(=O)O)NC(=O)[C@H](Cc2ccc(O)cc2)NC(=O)c2ccc(F)nc2)C(=O)N2C[C@H](O)C[C@H]2C(=O)N[C@@H](Cc2ccc(O)c(Cl)c2)C(=O)NCC(=O)N[C@@H](CC(C)C)C(=O)N1)C(=O)N[C@H](CC(C)C)C(N)=O) [Compound 8] |  | 
9 | 140 nM | < 600 nM | {Nicotinoyl(6-F)}-[dY][dE]C[Hyp][Tyr(3-Cl)]GLCHI[dL]-NH2 (disulfide 3-8; SMILES CC[C@H](C)[C@H](NC(=O)[C@H](Cc1c[nH]cn1)NC(=O)[C@@H]1CSSC[C@H](NC(=O)[C@@H](CCC(=O)O)NC(=O)[C@@H](Cc2ccc(O)cc2)NC(=O)c2ccc(F)nc2)C(=O)N2C[C@H](O)C[C@H]2C(=O)N[C@@H](Cc2ccc(O)c(Cl)c2)C(=O)NCC(=O)N[C@@H](CC(C)C)C(=O)N1)C(=O)N[C@H](CC(C)C)C(N)=O) [Compound 3] |  | 
10 | 230 nM | < 600 nM | {Nicotinoyl(6-F)}-Y[dE]C[Hyp][Tyr(3-Cl)]GLCHI[dQ]-NH2 (disulfide 3-8; SMILES CC[C@H](C)[C@H](NC(=O)[C@H](Cc1c[nH]cn1)NC(=O)[C@@H]1CSSC[C@H](NC(=O)[C@@H](CCC(=O)O)NC(=O)[C@H](Cc2ccc(O)cc2)NC(=O)c2ccc(F)nc2)C(=O)N2C[C@H](O)C[C@H]2C(=O)N[C@@H](Cc2ccc(O)c(Cl)c2)C(=O)NCC(=O)N[C@@H](CC(C)C)C(=O)N1)C(=O)N[C@H](CCC(N)=O)C(N)=O) [Compound 5] |  | 
11 | 580 nM | < 600 nM | {Nicotinoyl(6-F)}-Y[dE]C[Hyp][Tyr(3-Cl)]GLCYIQ-NH2 (disulfide 3-8; SMILES CC[C@H](C)[C@H](NC(=O)[C@H](Cc1ccc(O)cc1)NC(=O)[C@@H]1CSSC[C@H](NC(=O)[C@@H](CCC(=O)O)NC(=O)[C@H](Cc2ccc(O)cc2)NC(=O)c2ccc(F)nc2)C(=O)N2C[C@H](O)C[C@H]2C(=O)N[C@@H](Cc2ccc(O)c(Cl)c2)C(=O)NCC(=O)N[C@@H](CC(C)C)C(=O)N1)C(=O)N[C@@H](CCC(N)=O)C(N)=O) [Compound 7] |  | 
12 | 70 nM | < 600 nM | {Nicotinoyl(6-F)}-[dY][dE]C[Hyp][Tyr(3-Cl)]GLCHIQ-NH2 (disulfide 3-8; SMILES CC[C@H](C)[C@H](NC(=O)[C@H](Cc1c[nH]cn1)NC(=O)[C@@H]1CSSC[C@H](NC(=O)[C@@H](CCC(=O)O)NC(=O)[C@@H](Cc2ccc(O)cc2)NC(=O)c2ccc(F)nc2)C(=O)N2C[C@H](O)C[C@H]2C(=O)N[C@@H](Cc2ccc(O)c(Cl)c2)C(=O)NCC(=O)N[C@@H](CC(C)C)C(=O)N1)C(=O)N[C@@H](CCC(N)=O)C(N)=O) [Compound 2] |  | 
